{"source": "patent US20100047226A1", "about": "(published 2010)", "binders": {"B1": {"name": "ZaTa peptide (PKAc fragment flanking Thr-197) (peptide)", "peptide": "AKRVKGRTWTLCGTPEY"}}, "test_in_all_cases": "cell-based or functional assay", "key": {"AKT2 (active form)": {"target": "AKT2 (active form) (UniProt P31751 120-481, limits assumed)", "sequence (P31751 120-481 limits assumed)": "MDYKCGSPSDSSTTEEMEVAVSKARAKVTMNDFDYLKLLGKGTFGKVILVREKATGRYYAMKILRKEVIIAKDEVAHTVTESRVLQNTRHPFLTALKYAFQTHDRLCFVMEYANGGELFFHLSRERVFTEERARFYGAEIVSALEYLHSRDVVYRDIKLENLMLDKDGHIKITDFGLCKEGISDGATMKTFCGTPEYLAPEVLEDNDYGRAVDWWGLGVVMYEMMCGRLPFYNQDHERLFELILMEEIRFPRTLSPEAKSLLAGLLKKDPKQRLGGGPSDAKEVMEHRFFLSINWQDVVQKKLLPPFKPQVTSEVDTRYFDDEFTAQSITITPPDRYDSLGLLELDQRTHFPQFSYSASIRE"}, "PI3K[…] (active form)": {"target": "PI3K[…] (active form)"}, "SGK (active form)": {"target": "T1, SGK (active form) (UniProt O00141 60-431, limits assumed)", "T1 sequence (looked up)": "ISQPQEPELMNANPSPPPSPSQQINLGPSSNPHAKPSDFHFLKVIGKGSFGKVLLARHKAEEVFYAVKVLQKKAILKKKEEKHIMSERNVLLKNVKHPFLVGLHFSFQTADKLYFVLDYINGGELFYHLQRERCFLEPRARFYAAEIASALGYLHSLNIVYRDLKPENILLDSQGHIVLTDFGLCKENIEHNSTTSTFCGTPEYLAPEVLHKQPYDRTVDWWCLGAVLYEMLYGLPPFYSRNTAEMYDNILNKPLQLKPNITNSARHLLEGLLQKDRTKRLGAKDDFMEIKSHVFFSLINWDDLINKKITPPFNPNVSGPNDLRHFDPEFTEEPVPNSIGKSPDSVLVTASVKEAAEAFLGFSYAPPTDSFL"}, "PAK3 (active form)": {"target": "PAK3 (active form) (UniProt O75914 1-559, limits assumed)", "sequence (O75914 whole entry)": "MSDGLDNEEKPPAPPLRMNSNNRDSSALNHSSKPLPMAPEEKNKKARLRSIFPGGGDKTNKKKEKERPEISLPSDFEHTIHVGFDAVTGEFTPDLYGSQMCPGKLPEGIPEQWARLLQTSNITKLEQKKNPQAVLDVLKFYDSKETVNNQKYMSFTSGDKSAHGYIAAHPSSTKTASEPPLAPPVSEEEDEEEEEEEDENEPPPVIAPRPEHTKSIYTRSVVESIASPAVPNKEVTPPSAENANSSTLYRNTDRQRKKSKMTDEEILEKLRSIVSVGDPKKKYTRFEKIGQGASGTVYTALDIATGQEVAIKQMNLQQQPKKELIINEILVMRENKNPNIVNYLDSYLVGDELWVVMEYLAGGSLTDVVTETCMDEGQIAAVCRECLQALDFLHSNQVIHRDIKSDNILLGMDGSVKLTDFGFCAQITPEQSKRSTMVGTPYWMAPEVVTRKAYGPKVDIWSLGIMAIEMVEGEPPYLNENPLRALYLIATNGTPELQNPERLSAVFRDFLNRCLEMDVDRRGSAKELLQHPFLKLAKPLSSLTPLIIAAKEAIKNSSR"}, "Abl (active form)": {"target": "Abl (active form) (UniProt P00519 27-1130, limits assumed)", "sequence (P00519 27-1130 limits assumed)": "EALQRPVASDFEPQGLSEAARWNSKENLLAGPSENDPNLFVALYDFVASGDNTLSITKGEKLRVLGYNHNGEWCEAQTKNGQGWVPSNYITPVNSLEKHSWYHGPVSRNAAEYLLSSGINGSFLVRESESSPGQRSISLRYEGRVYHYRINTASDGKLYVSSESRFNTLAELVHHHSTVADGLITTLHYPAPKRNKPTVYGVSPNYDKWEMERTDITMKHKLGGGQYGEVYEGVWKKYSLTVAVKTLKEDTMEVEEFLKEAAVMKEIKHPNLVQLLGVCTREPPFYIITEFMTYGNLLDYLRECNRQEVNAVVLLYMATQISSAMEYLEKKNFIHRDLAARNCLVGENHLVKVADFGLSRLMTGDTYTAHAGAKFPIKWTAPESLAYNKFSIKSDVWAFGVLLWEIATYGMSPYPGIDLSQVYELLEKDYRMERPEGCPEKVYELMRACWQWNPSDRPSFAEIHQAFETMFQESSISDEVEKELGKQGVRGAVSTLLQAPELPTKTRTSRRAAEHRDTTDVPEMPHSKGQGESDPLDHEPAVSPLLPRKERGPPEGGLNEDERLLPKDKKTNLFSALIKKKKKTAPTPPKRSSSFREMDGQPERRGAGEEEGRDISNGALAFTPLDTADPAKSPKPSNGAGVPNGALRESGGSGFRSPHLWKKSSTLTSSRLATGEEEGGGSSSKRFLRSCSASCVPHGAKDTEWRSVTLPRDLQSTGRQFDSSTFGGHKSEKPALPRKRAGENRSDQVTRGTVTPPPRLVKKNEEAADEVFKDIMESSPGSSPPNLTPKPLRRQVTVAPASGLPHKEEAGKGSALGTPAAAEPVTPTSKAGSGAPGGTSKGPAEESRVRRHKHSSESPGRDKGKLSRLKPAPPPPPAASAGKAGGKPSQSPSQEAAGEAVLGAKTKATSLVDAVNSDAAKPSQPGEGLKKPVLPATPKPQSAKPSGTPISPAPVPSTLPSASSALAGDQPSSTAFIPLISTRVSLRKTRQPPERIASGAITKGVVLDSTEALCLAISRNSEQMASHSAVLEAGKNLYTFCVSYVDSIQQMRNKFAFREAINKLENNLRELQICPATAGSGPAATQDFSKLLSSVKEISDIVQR"}, "p70S6K (active form)": {"target": "p70S6K (active form) (UniProt P23443 1-421)", "sequence (P23443 1-421)": "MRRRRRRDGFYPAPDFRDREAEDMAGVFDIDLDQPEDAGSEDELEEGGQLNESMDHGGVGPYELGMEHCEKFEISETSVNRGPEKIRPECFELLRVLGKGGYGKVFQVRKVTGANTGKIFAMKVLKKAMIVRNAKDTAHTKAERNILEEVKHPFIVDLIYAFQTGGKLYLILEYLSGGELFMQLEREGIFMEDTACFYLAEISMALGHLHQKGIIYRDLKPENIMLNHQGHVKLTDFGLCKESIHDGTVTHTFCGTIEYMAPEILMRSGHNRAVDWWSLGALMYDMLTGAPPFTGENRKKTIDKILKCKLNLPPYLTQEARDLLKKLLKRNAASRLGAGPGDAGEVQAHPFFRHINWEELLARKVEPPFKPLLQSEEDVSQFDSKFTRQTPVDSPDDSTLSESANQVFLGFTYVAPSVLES"}, "TrkB (active form)": {"target": "TrkB (active form) (UniProt Q16620 526-822, limits assumed)", "sequence (Q16620 526-822 limits assumed)": "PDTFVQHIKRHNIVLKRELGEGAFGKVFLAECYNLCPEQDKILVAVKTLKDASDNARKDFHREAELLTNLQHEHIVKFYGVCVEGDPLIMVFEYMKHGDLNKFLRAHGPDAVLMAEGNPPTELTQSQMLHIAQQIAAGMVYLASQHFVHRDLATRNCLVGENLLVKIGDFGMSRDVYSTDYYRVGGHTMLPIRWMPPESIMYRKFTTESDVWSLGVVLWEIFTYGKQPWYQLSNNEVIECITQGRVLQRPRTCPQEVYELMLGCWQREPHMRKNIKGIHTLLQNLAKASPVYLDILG"}, "JAK3 (active form)": {"target": "JAK3 (active form) (UniProt P52333 781-1124, limits assumed)", "sequence (P52333 781-1124 limits assumed)": "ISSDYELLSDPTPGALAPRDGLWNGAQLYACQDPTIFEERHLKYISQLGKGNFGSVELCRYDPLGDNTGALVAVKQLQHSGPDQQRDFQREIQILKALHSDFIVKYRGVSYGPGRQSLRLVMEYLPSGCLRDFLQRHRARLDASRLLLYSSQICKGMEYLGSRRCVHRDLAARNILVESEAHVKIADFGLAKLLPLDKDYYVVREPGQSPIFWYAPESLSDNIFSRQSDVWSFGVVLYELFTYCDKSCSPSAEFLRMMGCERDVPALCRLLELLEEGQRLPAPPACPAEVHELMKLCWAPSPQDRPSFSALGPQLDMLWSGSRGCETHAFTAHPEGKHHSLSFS"}}}
{"binder": "B1", "values": [{"measurement": "in vitro kinase assay at ten times the IC50 for AKT1", "setting": "AKT2 (active form)", "result": 63, "unit": "%"}, {"measurement": "in vitro kinase assay at ten times the IC50 for AKT1", "setting": "PI3K[…] (active form)", "result": 72, "unit": "%"}, {"measurement": "in vitro kinase assay at ten times the IC50 for AKT1", "setting": "SGK (active form)", "result": 73, "unit": "%"}, {"measurement": "in vitro kinase assay at ten times the IC50 for AKT1", "setting": "PAK3 (active form)", "result": 83, "unit": "%"}, {"measurement": "in vitro kinase assay at ten times the IC50 for AKT1", "setting": "Abl (active form)", "result": 42, "unit": "%"}, {"measurement": "in vitro kinase assay at ten times the IC50 for AKT1", "setting": "p70S6K (active form)", "result": 64, "unit": "%"}, {"measurement": "in vitro kinase assay at ten times the IC50 for AKT1", "setting": "TrkB (active form)", "result": 84, "unit": "%"}, {"measurement": "in vitro kinase assay at ten times the IC50 for AKT1", "setting": "JAK3 (active form)", "result": 79, "unit": "%"}]}
